These are literature values, as cited in article PMC11866742.

The data set concerns the target SIRPα (Homo sapiens) (UniProt P78324).
UniProt P78324, sequence (P78324 31-373): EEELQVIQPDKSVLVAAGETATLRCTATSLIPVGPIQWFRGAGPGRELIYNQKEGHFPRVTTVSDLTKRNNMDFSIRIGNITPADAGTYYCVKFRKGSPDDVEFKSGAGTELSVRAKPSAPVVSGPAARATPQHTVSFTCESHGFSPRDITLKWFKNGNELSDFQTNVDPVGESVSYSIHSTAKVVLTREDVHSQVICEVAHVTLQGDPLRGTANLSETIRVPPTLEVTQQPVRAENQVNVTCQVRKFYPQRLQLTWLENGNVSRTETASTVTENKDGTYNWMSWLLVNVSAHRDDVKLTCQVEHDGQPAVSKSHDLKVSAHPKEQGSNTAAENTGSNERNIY

As usually defined, the Kd is the concentration at which binding is half-saturated. In the case of CD47 (from UniProt Q08722), the Kd was 1500 nM.
